# Measurements published in patent US20240173398A1 (MAX PLANCK GESELLSCHAFT ZUR F RDERUNG DER WISSENSCHAFTEN E V, published 2024).
# Biological target: SARS-CoV-2 RBD (correctly folded, co-expressed with fold-promoting VHH in E. coli) (SARS-CoV-2, UniProt P0DTC2 330-527)
# Assay: co-expression in E. coli, co-purification and gel filtration
row,Binder,binding result
1,VHH antibody Re9D02 (VHH) VHH: QVQLVESGGGLVQAGGSLRLSCAASGRTFSNYAMGWFRQAPGKEREFVAAISWGGDTTYYADSLKGRFTISRDNAKNTVYLQMNSLKPEDTAVYYCAADRGLSYYYDRVTEYDYWGQGTQVTVSS,binds
2,VHH antibody Re6A11 (VHH) VHH: QVQLVESGGGLVQAGGSLRLSCAASGRTFSNDALGWFRQAPRKEREFVAAINWNSGTYYADSVKGRFTISRDNAKNTVYLQMNSLKPEDTAVYSCAAASDYGLPREDFLYDYWGQGTLVTVSS,binds
3,VHH antibody Re9F06 (VHH) VHH: QVQLVESGGGLVQAGGSLRLSCAASGRTFSNDALGWFRQAPRKEREFVAAINWNSGTYYADSVKGRFTISRDNAKNTVYLQMNSLKPEDTAVYSCAAASDYGLPREDFLYDYWGQGTQVTVSS,binds
4,VHH antibody Re9G12 (VHH) VHH: QVQLVESGGGLVQAGGSLRLSCAASGRTFSSYVMGWFRQAPGKEREFVAHISWSGDSTYYADSVKGRFTIFRDNAKNTAYLQMNSLKPEDTAVYYCAADRGASYYYTWASEYNYWGQGTQVTVSS,binds
5,VHH antibody Re11H04 (VHH) VHH: QVQLVESGGGLVQPGGSLRLSCAASGFTLDYYTIAWFRQAPGKEREGVSCISGNDGSTYYADSVKGRFTISRDNAKNTVYLQMNSLKPEDTAVYYCAADRGESYYPFRPSEYHYWGQGTQVTVSS,binds
6,VHH antibody Re7E02 (VHH) VHH: QVQLVESGGGLVQAGGSLRLSCAASGFTLDYYAIGWFRQAPGKEREGVSYIRSSDGTTYYADSVKGRFTISRDNAKNTVYLQMNSLKPEDTAVYYCAADEAYYSELGWESPWGWSYWGQGTQVTVSS,binds
7,VHH antibody Re6B07 (VHH) VHH: QVQLVESGGGLVQPGGSLRLSCAASGFTLDYYAIGWFRQAPGKEREGVSYIRSSDGTTYYADSVKGRFTISRDNAKNTVYLQMNSLKPEDTAVYYCAADEAYYSELGWESPWGWSYWGQGTRVTVSS,binds
8,VHH antibody Re9C07 (VHH) VHH: QVQLVESGGGLVQAGGSLRLSCAASGRTFSRYAMGWFRQAPGKEREFVAAITWNADTTYYADSVKGRFTISRDNAKNTVYLQMNSLKPEDTAVYYCAAGGNHYYSRSYYSSLEYDHWGQGTQVTVSS,binds
